Results published in patent US20230051715A1 (MABWELL THERAPEUTICS, published 2023).

T1: cynomolgus monkey C1s (produced in house) (cynomolgus monkey, UniProt P09871 16-685 (human entry), limits assumed)
T1 construct: also called CyC1s
T1 chain: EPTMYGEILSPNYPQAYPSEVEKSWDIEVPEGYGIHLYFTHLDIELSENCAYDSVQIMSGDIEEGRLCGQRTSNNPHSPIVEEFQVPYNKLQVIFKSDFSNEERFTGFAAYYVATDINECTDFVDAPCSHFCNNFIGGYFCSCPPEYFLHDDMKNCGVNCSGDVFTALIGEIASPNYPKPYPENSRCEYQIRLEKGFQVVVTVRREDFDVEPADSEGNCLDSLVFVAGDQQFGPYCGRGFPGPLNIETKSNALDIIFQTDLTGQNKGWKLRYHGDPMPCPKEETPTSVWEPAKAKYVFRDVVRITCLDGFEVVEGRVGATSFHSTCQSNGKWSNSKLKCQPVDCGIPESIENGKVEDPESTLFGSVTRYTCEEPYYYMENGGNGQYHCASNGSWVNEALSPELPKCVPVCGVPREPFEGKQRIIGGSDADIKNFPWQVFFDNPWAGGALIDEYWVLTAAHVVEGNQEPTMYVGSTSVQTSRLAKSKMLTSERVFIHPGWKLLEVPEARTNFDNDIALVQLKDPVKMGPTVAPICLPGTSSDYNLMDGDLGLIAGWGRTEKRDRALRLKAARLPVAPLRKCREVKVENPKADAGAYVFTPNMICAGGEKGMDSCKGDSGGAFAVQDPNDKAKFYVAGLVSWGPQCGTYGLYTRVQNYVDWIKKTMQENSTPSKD

T2: active human C1s (CompTech A104 C1s Enzyme) (human, UniProt P09871 16-688)
T2 construct: also called human active C1s; active C1s protein
T2 sequence (looked up): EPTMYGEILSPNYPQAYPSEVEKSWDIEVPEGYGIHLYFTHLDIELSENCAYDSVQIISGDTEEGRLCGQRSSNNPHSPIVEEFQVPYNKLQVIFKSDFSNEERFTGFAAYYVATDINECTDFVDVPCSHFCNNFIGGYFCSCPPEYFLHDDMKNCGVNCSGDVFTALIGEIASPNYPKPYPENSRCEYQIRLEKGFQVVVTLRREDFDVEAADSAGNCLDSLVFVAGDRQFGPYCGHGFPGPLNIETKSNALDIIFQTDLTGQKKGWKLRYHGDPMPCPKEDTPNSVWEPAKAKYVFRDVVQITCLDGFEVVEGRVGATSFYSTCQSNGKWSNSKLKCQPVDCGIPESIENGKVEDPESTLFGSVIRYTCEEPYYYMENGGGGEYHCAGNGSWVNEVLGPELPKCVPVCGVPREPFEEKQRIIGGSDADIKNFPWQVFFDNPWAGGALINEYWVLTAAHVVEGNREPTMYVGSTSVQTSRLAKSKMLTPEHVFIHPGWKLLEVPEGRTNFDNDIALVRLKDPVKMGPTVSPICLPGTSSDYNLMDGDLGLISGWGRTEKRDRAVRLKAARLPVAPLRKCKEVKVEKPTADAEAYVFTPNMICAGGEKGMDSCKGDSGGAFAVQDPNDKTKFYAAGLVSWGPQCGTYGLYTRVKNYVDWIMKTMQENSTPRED


Tests used:
[1] = biological target: T1, cynomolgus monkey C1s (produced in …); assay: BLI (Octet RED96e), antibody on AHC biosensor; C1s Species: Cyno Monkey; R^2 0.9993
From the text: At last, analyte was dissociated in 1×KB for 360 sec. Data analysis was done using OCTET® Data Analysis HT Software (Sartorius AG).

[2] = biological target: T2, active human C1s (CompTech A104 C1s …); assay: BLI (Octet RED96e), antibody on AHC biosensor; HuC1s Form: Active; R^2 0.9994
Procedure: Bio-Layer Interferometry technology was used for anti-C1s antibody affinity measurement and binding kinetics determinations with OCTET® RED96e system (Sartorius AG). Pre-hydrated Anti-Human IgG Fc Capture (AHC) biosensors were first equilibrated in 1×KB (Kinetic Buffer, 1×PBS pH 7.4+0.02% Tween-20+0.1% BSA) for 120 sec for the first baseline, followed by loading with […] anti-C1s antibody (2-7, FIG. 3A; 2-8, FIG. 3B; hz2-7(H1L2), FIG. 3C; hz2-8(H1L2 G80A/T82A, FIG. 3D) onto AHC biosensors for 240 sec. Then, the second baseline signal was established for 120 sec before association with various concentrations of active human C1s (CompTech A104) for 240-360 sec. At last, analyte was dissociated in 1×KB for 360 sec. Anti-C1s antibodies 2-7 and 2-8 were also analyzed against human C1s proenzyme (CompTech A103) (data not shown). Data analysis was carried out using OCTET® Data Analysis HT Software (Sartorius AG). KD, kₒₙ, koff and R² values were calculated for each antibody and target combination, as summarized in FIG. 3E showing high affinity binding with KD values in the low nanomolar to picomolar range.

Binder	Kd [1] [nM]	koff [1] [s⁻¹]	kon [1] [M⁻¹ s⁻¹]	Kd [2] [nM]	koff [2] [s⁻¹]	kon [2] [M⁻¹ s⁻¹]
Anti-C1s antibody hz2-8 (H1L2 G80A/T82A) (antibody, V domains shown, Humanized variant with G80A and T82A in HC CDR2 (already in the entry), human IgG1 / kappa) VH: QVQLVQSGAEVKKPGASVKVSCKASGFNIKEYYMHWVRQAPEQGLEWMGWIDPENADAIYAQKFQGRVTITADTSTNTAYMELSSLRSEDTAVYYCARSRLFFAYWGQGTLVTVSS VL: DIQMTQSPKSLSASVGDRVTITCRASQDVRTALDWYQQKPGQSPKLLIYSASYRYSGVPSRFSGSGSGTDFTLTISSLQPEDFATYYCQQQYTTPYTFGQGTKLEIKR	3.5	0.00081	230000	–	–	–
Anti-C1s antibody 2-7 (antibody, human IgG1, kappa, V domains shown, the HC/LC entries may hold it too; also called clone 2-7) VH: EVKLEESGGGLVPPGGSMKLSCVASGFTFSNYFMNWVRQSPEKGLEWVAEIRLKFTNYATHYAESVEGRFTISRDDSKSSVYLQMNNLRAEDTGIYYCTRDYGSRNGYFDYWGQGTTLTVSS VL: DIVMTQAAPSVPVTPGESVSISCRSSKSLLHSNGNTFLYWFLQRPGQSPQLLIYRMSNLASGVPDRFSGSGSGTAFTLRVSRVEAEDVGIYYCMQHLEYPYTFGGGTKLEIKT	–	–	–	0.14	4.8e-05	350000
